Assay results reported in publication PMC12147029, “Rare SNP in the HELB gene interferes with RPA interaction and cellular function of HELB”.

Experiments:
HELB D506G = HELB D506G (Homo sapiens, UniProt Q8NG08 1-1087, D506G); test: fluorescence anisotropy; 10 mM Mg(OAc)2, no nucleotide; 25 mM HEPES pH 7.5, 10 mM KOAc, 10 mM Mg(OAc)2, 0.1 mM EDTA, 2 mM beta-mercaptoethanol, 0.1 mg/ml BSA, 1 nM DNA, 30 min, room temperature; conditions: protein: recombinant; tags: none (His-SUMO cleaved by Ulp1); label: 3'-6-carboxyfluorescein; single strand
HELB WT = HELB WT (Homo sapiens, UniProt Q8NG08 1-1087); test: as above; conditions: protein: recombinant; tags: none (His-SUMO cleaved by Ulp1); label: 3'-6-carboxyfluorescein; single strand
Chain of HELB WT (Q8NG08 whole entry): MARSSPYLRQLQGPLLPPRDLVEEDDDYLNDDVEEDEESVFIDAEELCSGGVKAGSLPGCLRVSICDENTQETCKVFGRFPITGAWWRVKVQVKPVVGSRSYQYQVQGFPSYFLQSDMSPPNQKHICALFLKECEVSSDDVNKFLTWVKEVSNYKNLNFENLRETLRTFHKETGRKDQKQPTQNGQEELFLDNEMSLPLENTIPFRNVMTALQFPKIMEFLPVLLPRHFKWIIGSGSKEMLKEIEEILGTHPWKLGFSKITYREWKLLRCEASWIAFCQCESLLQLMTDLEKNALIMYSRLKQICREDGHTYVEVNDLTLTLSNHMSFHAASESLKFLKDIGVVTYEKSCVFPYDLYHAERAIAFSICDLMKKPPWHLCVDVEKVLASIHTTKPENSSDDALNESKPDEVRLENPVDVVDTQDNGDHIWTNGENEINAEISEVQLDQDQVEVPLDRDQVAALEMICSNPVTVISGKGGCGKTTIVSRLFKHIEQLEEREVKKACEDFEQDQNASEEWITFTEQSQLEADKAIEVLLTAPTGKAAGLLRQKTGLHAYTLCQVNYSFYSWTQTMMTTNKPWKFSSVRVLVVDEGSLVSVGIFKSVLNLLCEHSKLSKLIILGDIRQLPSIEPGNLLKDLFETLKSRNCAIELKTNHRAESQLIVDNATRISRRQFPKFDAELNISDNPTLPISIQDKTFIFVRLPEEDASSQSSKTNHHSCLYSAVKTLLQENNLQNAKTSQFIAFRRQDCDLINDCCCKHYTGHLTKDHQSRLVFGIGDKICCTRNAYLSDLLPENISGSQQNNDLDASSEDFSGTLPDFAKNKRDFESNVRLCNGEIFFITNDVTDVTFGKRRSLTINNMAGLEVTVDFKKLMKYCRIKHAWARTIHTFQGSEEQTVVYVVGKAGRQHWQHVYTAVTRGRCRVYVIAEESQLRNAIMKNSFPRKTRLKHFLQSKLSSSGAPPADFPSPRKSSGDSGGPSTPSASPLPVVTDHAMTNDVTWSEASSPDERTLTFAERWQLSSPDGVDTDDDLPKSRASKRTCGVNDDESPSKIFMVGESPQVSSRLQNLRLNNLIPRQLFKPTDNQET

Chain of HELB D506G (Q8NG08 whole entry D506G): as the sequence (Q8NG08 whole entry) above, with D506G counted along it

B1: 3'-FAM-T16 (ssDNA)
DNA: TTTTTTTTTTTTTTTT
HELB D506G
  Kd: 2.2 ± 0.4 nM
HELB WT
  Kd: 3.4 ± 0.2 nM
